In US20040143095A1:

Key:
[1] = target: mouse CRF receptor type 2β (mouse) (UniProt Q60748); experiment: radioligand displacement ([125I-Tyr0,Glu1,Nle17]-sauvagine), CHO membranes
[2] = target: rat CRF receptor type 2α (rat) (UniProt P47866); experiment: as above
rat CRF receptor type 2α (rat), sequence (P47866 20-411): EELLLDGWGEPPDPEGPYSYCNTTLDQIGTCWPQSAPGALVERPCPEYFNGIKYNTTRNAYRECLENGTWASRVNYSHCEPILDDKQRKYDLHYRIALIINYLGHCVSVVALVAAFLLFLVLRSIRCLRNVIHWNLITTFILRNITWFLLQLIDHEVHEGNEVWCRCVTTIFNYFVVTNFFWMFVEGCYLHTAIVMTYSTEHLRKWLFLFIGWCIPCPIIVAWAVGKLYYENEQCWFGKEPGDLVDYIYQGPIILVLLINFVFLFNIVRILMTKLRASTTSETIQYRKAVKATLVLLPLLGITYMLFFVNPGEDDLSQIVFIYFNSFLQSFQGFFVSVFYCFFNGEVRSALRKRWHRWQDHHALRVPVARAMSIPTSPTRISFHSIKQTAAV

Ki [1]	Ki [2]	Substance
5.2 nM	10.1 nM	CRF (rat/human) (from UniProt P06850 154-194) (peptide)
0.62 nM	2.2 nM	Urocortin (rat) (from UniProt P55090 81-120) (peptide)
